Target: human cathepsin B (human, UniProt P07858 80-333)
Experiment: second-order association rate constant from continuous hydrolysis of (Z-FR)2-R110, pseudo-first order conditions, 20 nM cathepsin B, 200 or 400 nM Spi2A
Experimental: Kinetics of cathepsin B inhibition by Spi2A. […] Briefly, 20 nM cathepsin B was added to 5 μM substrate, in presence or in absence of 200 or 400 nM (10- or 20-fold excess respectively) of Spi2A in activation buffer. Reactions were performed in 96-well microtitre plates. The final reaction volume was 200 μl. The rate of substrate hydrolysis was continuously monitored for 3 min. The dead time for the measurement (the time between the addition of the enzyme to the substrate (with or without inhibitor) and the first spectrophotometric measurement was ˜30 s.

B1: Spi2A-3xFLAG (murine serine protease inhibitor 2A with a C-terminal 3xFLAG epitope tag) (other)
chain: MAGVSPAVFGCPDVTLGRNTAVREVQENVTSVDSLTLVSSNTDFAFSLYRKLVLKNPDENVVFSPFSICTALALLSLGAKSNTLKEILEGLKFNLTETPEPDIHQGFRYLLDLLSQPGNQVQISTGSALFIEKHLQILAEFKEKARALYQAEAFTADFQQPLKATKLINDYVSNHTQGKIKELISGLKESTLMVLVNYIYFKGKWKNPFDPNDTFKSEFYLDEKRSVIVSMMKTGYLTTPYFRDEELSCTVVELKYTGNASAMFILPDQGRMQQVEASLQPETLRKWKNSLKPRMIHELRLPKFSISTDYSLEHILPELGIREVFSTHADLSAITGTKDLRVSQVVHKAVLDVAEKGTEAAAATGMAGVGCCAVFDFLEIFFNRPFLMIISDTKAHIALFMAKVTNPERSTNFPNGEGASSQRLESKRLCFGDPLCLIGQ
notes: Purified from lysates of RelA-/- MEFs transduced with retrovirus encoding Spi2A-3xFLAG (ion exchange, then anti-FLAG column); The ORF was amplified from T cell cDNA; also called FLAG-tagged Spi2A; not shown: C-terminal 3xFLAG (22 amino acids) from the 3xFLAG-CMV-14 vector
kon: > 1e+06 M⁻¹ s⁻¹

From patent US20040214773A1 (UNIVERSITY OF CHICAGO, published 2004)
